Measured values taken from US20250043302A1, “MUTATED HYDROXYPHENYLPYRUVATE DIOXYGENASE POLYPEPTIDE, AND CODING GENE AND USE THEREOF” (BEIJING DABEINONG BIOTECHNOLOGY CO., LTD., priority 2021, published 2025).
Residue numbers refer to the chain shown, from its start. Names may count otherwise.

B1: AtHPPDm-F415W-02: nucleotide sequence encoding Arabidopsis thaliana HPPD with F415W; vector DBN11793 (nucleic acid)
DNA: ATGGGACATCAGAATGCTGCTGTATCAGAAAATCAAAATCATGATGATGGAGCCGCCTCCTCACCAGGGTTTAAGTTGGTTGGGTTCTCCAAGTTTGTACGGAAGAACCCAAAATCCGACAAGTTCAAGGTTAAACGCTTCCACCACATTGAATTCTGGTGCGGCGACGCCACCAATGTTGCTCGGCGTTTTTCATGGGGTTTAGGCATGAGATTCTCAGCAAAGAGTGACCTGAGCACCGGCAACATGGTTCATGCTAGCTATCTCTTAACATCTGGAGATTTGAGGTTTCTTTTCACGGCGCCGTACTCACCATCACTCTCCGCCGGCGAGATCAAACCCACCACGACTGCAAGCATACCTTCATTTGATCATGGTAGTTGCAGATCCTTCTTCTCGTCGCACGGCCTAGGGGTGCGCGCGGTCGCCATCGAAGTTGAAGATGCAGAATCAGCGTTTAGTATCAGCGTGGCAAATGGAGCTATTCCTTCCTCCCCTCCAATTGTCCTCAATGAGGCTGTAACTATTGCCGAGGTGAAGTTGTATGGAGATGTTGTGCTGAGATATGTTTCTTACAAGGCAGAGGACACTGAGAAATCTGAATTTTTGCCTGGTTTTGAAAGGGTCGAGGATGCTTCAAGTTTTCCTCTTGATTACGGCATACGACGGTTGGATCACGCGGTTGGAAATGTACCAGAACTTGGGCCGGCGCTCACTTATGTGGCTGGTTTCACTGGATTCCATCAATTTGCTGAGTTCACAGCTGATGATGTTGGGACTGCTGAAAGTGGGTTGAACTCTGCAGTCCTCGCCTCTAATGATGAAATGGTGCTCCTCCCGATCAACGAGCCTGTGCATGGCACCAAAAGGAAATCACAAATACAGACATATCTTGAGCACAATGAAGGTGCAGGGCTTCAACATCTTGCACTGATGTCTGAAGACATTTTCCGTACGCTGAGAGAGATGAGGAAGAGAAGTAGTATTGGTGGATTTGACTTCATGCCTTCTCCCCCACCAACTTACTACCAGAACTTGAAGAAGAGGGTTGGTGATGTGCTATCTGATGACCAGATCAAGGAGTGTGAAGAATTGGGCATTCTTGTTGATCGGGACGACCAAGGAACATTACTGCAGATATTTACAAAACCACTTGGTGACCGCCCCACTATTTTTATTGAGATCATACAAAGAGTCGGCTGCATGATGAAGGATGAGGAAGGAAAAGCATATCAATCTGGTGGTTGTGGCGGCTTTGGGAAAGGAAACTGGTCTGAGCTGTTCAAATCCATCGAGGAGTATGAGAAGACCTTGGAGGCCAAGCAGCTCGTGGGTTGA
modifications: AtHPPDm-F415W-02 Nucleotide Sequence
notes: vector DBN11793
B2: AtHPPDm-F372A-F415W-02: nucleotide sequence encoding Arabidopsis thaliana HPPD with F372A+F415W; vector DBN11794 (nucleic acid)
DNA: B1 DNA with T1141G, T1142C, T1143C
modifications: AtHPPDm-F372A-F415W-02 Nucleotide Sequence
notes: vector DBN11794

Key:
Type in all cases: in vivo
[1] = tested on: Arabidopsis thaliana T1 plants; test: Topramezone tolerance of transgenic Arabidopsis thaliana T1 plants (spray, bleached leaf area grade, damage score); conditions: Table 13; for Classification and statistics of the grade of pesticide damage Grade 0: number of plants at grade 0; for Classification and statistics of the grade of pesticide damage Grade 1: number of plants at grade 1; for Classification and statistics of the grade of pesticide damage Grade 2: number of plants at grade 2; for Classification and statistics of the grade of pesticide damage Grade 3: number of plants at grade 3; for Scores: pesticide damage score
Outline: (§1)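 Damage was assessed by bleaching grade (0 none; 1 <50%; 2 >50%; 3 100% of leaf area) one week after spraying. Sprays on 18-day-old T1 and wild-type plants used field-rate multiples: topramezone 25–200, isoxaflutole 35–280, mesotrione 52.5–420 g ai/ha.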

[2] = tested on: Arabidopsis thaliana T1 plants; test: Isoxaflutole tolerance of transgenic Arabidopsis thaliana T1 plants (spray, bleached leaf area grade, damage score); conditions: for Classification and statistics of the grade of pesticide damage Grade 0 / Classification and statistics of the grade of pesticide damage Grade 1 / Classification and statistics of the grade of pesticide damage Grade 2 / Classification and statistics of the grade of pesticide damage Grade 3: number of plants in grade;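 for Scores: Weighted damage index from 0 to 100 where higher means more damage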
Outline: as §1

[3] = tested on: Arabidopsis thaliana T1 plants; test: Mesotrione tolerance of transgenic Arabidopsis thaliana T1 plants (spray, bleached leaf area grade, damage score); set-up: Scores: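 damage score 0-100 computed as Σ(N×S)/(T×M)×100 over grades 0-3 with higher meaning more damage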; conditions: for Classification and statistics of the grade of pesticide damage Grade 0 / Classification and statistics of the grade of pesticide damage Grade 1 / Classification and statistics of the grade of pesticide damage Grade 2 / Classification and statistics of the grade of pesticide damage Grade 3: number of plants in grade
Outline: as §1

| Molecule | Resistance evaluation ([1]; topramezone 25 g ai/ha (1×)) | Classification and statistics of the grade of pesticide damage Grade 0 ([1]; topramezone 25 g ai/ha (1×)) | Classification and statistics of the grade of pesticide damage Grade 1 ([1]; topramezone 25 g ai/ha (1×)) | Classification and statistics of the grade of pesticide damage Grade 2 ([1]; topramezone 25 g ai/ha (1×)) | Classification and statistics of the grade of pesticide damage Grade 3 ([1]; topramezone 25 g ai/ha (1×)) | Scores ([1]; topramezone 25 g ai/ha (1×)) | Resistance evaluation ([1]; topramezone 100 g ai/ha (4×)) | Classification and statistics of the grade of pesticide damage Grade 0 ([1]; topramezone 100 g ai/ha (4×)) | Classification and statistics of the grade of pesticide damage Grade 1 ([1]; topramezone 100 g ai/ha (4×)) | Classification and statistics of the grade of pesticide damage Grade 2 ([1]; topramezone 100 g ai/ha (4×)) | Classification and statistics of the grade of pesticide damage Grade 3 ([1]; topramezone 100 g ai/ha (4×)) | Scores ([1]; topramezone 100 g ai/ha (4×)) | Resistance evaluation ([2]; isoxaflutole 35 g ai/ha) | Scores ([2]; isoxaflutole 35 g ai/ha) | Classification and statistics of the grade of pesticide damage Grade 0 ([2]; isoxaflutole 35 g ai/ha) | Classification and statistics of the grade of pesticide damage Grade 1 ([2]; isoxaflutole 35 g ai/ha) | Classification and statistics of the grade of pesticide damage Grade 2 ([2]; isoxaflutole 35 g ai/ha) | Classification and statistics of the grade of pesticide damage Grade 3 ([2]; isoxaflutole 35 g ai/ha) | Resistance evaluation ([2]; isoxaflutole 70 g ai/ha) | Scores ([2]; isoxaflutole 70 g ai/ha) | other results |
| --- | --- | --- | --- | --- | --- | --- | --- | --- | --- | --- | --- | --- | --- | --- | --- | --- | --- | --- | --- | --- | --- |
| B1 | Non-resistant | 0 | 0 | 0 | 16 | 100 | Non-resistant | 0 | 0 | 0 | 16 | 100 | Non-resistant | 100 | 0 | 0 | 0 | 16 | Non-resistant | 100 | Classification and statistics of the grade of pesticide damage Grade 0 ([2]; isoxaflutole 70 g ai/ha): 0; Classification and statistics of the grade of pesticide damage Grade 1 ([2]; isoxaflutole 70 g ai/ha): 0; Classification and statistics of the grade of pesticide damage Grade 2 ([2]; isoxaflutole 70 g ai/ha): 0; Classification and statistics of the grade of pesticide damage Grade 3 ([2]; isoxaflutole 70 g ai/ha): 16; Resistance evaluation ([3]; mesotrione 52.5 g ai/ha): Non-resistant; Scores ([3]; mesotrione 52.5 g ai/ha): 100; Classification and statistics of the grade of pesticide damage Grade 0 ([3]; mesotrione 52.5 g ai/ha): 0; Classification and statistics of the grade of pesticide damage Grade 1 ([3]; mesotrione 52.5 g ai/ha): 0; Classification and statistics of the grade of pesticide damage Grade 2 ([3]; mesotrione 52.5 g ai/ha): 0; Classification and statistics of the grade of pesticide damage Grade 3 ([3]; mesotrione 52.5 g ai/ha): 16; Resistance evaluation ([3]; mesotrione 105 g ai/ha): Non-resistant; Scores ([3]; mesotrione 105 g ai/ha): 100; Classification and statistics of the grade of pesticide damage Grade 0 ([3]; mesotrione 105 g ai/ha): 0; Classification and statistics of the grade of pesticide damage Grade 1 ([3]; mesotrione 105 g ai/ha): 0; Classification and statistics of the grade of pesticide damage Grade 2 ([3]; mesotrione 105 g ai/ha): 0; Classification and statistics of the grade of pesticide damage Grade 3 ([3]; mesotrione 105 g ai/ha): 16 |
| B2 | Poorly | 4 | 4 | 7 | 1 | 44 | Non-resistant | 0 | 0 | 3 | 13 | 94 | Poorly | 54 | 0 | 9 | 4 | 3 | Non-resistant | 100 | Classification and statistics of the grade of pesticide damage Grade 0 ([2]; isoxaflutole 70 g ai/ha): 0; Classification and statistics of the grade of pesticide damage Grade 1 ([2]; isoxaflutole 70 g ai/ha): 0; Classification and statistics of the grade of pesticide damage Grade 2 ([2]; isoxaflutole 70 g ai/ha): 0; Classification and statistics of the grade of pesticide damage Grade 3 ([2]; isoxaflutole 70 g ai/ha): 16; Resistance evaluation ([3]; mesotrione 52.5 g ai/ha): Poorly resistant; Scores ([3]; mesotrione 52.5 g ai/ha): 65; Classification and statistics of the grade of pesticide damage Grade 0 ([3]; mesotrione 52.5 g ai/ha): 0; Classification and statistics of the grade of pesticide damage Grade 1 ([3]; mesotrione 52.5 g ai/ha): 4; Classification and statistics of the grade of pesticide damage Grade 2 ([3]; mesotrione 52.5 g ai/ha): 9; Classification and statistics of the grade of pesticide damage Grade 3 ([3]; mesotrione 52.5 g ai/ha): 3; Resistance evaluation ([3]; mesotrione 105 g ai/ha): Non-resistant; Scores ([3]; mesotrione 105 g ai/ha): 100; Classification and statistics of the grade of pesticide damage Grade 0 ([3]; mesotrione 105 g ai/ha): 0; Classification and statistics of the grade of pesticide damage Grade 1 ([3]; mesotrione 105 g ai/ha): 0; Classification and statistics of the grade of pesticide damage Grade 2 ([3]; mesotrione 105 g ai/ha): 0; Classification and statistics of the grade of pesticide damage Grade 3 ([3]; mesotrione 105 g ai/ha): 16 |
